The text below walks through data of patent publication US20060040855A1.

Experiment [1] deals with rat LH receptor (rat) (UniProt P16235).
Experiment [2] concerns the target human FSH receptor (human) (UniProt P23945).
Experiment [3] deals with rat LH receptor (rat) (UniProt P16235). The source holds these as a separate data set.
The target is the same in experiment [4]. The source holds these as a separate data set.

In the case of “dgα37-β33 (dg-αY37C/hCGβI33C) (from UniProt P01215) (ligand)”, the Efficacy, cyclic AMP accumulation in experiment [1] stood at 24%.
Take “dgα37-β33CFC (dg-αY37C/CFC101-114βI33C) (from UniProt P01215) (ligand)”: the efficacy in cyclic AMP assays was < 4 % of hFSH in experiment [2] and < 10 % of hCG in experiment [3].
Take “dghCG (hCG lacking the α-subunit loop 2 oligosaccharide) (from UniProt P01215) (ligand)”: in experiment [1], the Efficacy, cyclic AMP accumulation was found to be 42%. In experiment [4], the cyclic AMP accumulation is 40 % of hCG.
Consider “dgα37-β33CF (dg-αY37C/CF101-109βI33C) (from UniProt P01215) (ligand)”, for which the efficacy in cyclic AMP assays in experiment [2] was < 4 % of hFSH; in experiment [3] it was < 10 % of hCG.
